Read-outs that look alike come from different tables or passages of the source.
How the values were obtained:
Experiment in all cases: SPR
[1] = target: T1, recombinant SARS-CoV N protein (SARS coronavirus (SARS-CoV), UniProt P59595 1-422)
[2] = target: T1, recombinant SARS-CoV N protein; remark: listed apart in the source
[3] = target: T1, recombinant SARS-CoV N protein; remark: listed apart in the source
[4] = target: His-tagged N11 (aa283-422 of SARS-CoV N protein) (SARS coronavirus (SARS-CoV), UniProt P59595 283-422)
Sequence of His-tagged N11 (aa283-422 of SARS-CoV N protein) (P59595 283-422): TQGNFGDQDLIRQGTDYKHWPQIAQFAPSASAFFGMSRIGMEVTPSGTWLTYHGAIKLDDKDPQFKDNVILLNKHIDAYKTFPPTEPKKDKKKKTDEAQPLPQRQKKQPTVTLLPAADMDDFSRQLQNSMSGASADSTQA

T1 sequence (P59595 whole entry): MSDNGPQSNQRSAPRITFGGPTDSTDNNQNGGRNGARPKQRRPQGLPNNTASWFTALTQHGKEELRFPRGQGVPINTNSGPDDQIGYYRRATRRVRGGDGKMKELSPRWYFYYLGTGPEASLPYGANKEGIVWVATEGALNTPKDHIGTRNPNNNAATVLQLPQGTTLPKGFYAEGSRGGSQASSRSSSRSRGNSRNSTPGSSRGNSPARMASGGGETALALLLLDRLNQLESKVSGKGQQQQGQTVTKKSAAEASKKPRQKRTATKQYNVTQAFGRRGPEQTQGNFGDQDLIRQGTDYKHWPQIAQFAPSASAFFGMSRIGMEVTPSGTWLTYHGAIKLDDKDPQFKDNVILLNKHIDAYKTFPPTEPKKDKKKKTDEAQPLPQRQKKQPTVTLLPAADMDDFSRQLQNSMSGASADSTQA

| Binder | Kd [1] [µM] | koff [1] [s⁻¹] | kon [1] [M⁻¹ s⁻¹] | Kd [2] [µM] | Kd [3] [µM] | Kd [4] [µM] |
| --- | --- | --- | --- | --- | --- | --- |
| RYRIGNYKLNTDHAGSNDNIALLVQ [MCT peptide (residues 197-221 of SARS-CoV M protein)] | 75 ± 5 | 0.0394 ± 0.002 | 509 ± 42 |  |  |  |
| His-tagged SARS-CoV ME (endodomain of M protein, aa102-221) (domain or fragment) FARTRSMWSFNPETNILLNVPLRGTIVTRPLMESELVIGAVIIRGHLRMAGHSLGRCDIKDLPKEITVATSRTLSYYKLGASQRVGTDSGFAAYNRYRIGNYKLNTDHAGSNDNIALLVQ | 0.55 ± 0.04 | 0.00223 | 4180 | 49.2 | 21.2 | 0.61 ± 0.06 |
